# Reference: publication PMC11979922
# Target: HOL-30, β-galactoside-binding tandem-repeat galectin from the marine sponge Halichondria okadai (Halichondria okadai)
# Assay: SEC
substance,measurement,value
"HOL-30, β-galactoside-binding tandem-repeat galectin from the marine sponge Halichondria okadai (natural protein)",stoichiometry N,2
